For the test, the target named is human tissue factor (human, UniProt P13726 33-295). Kind of test: cell-based or functional assay.

B1: CNTO 860 derived from the YB2/0 host cell line C1083B (antibody, human IgG1, kappa, V domains shown)
VH: QVQLVESGGGVVQPGRSLRLSCKASGFNIKDYYMHWVRQAPGKGLEWIGLIDPENGNTIYDPKFQGRFTISADNSKNTLFLQMDSLRPEDTAVYYCARDNSYYFDYWGQGTPVTVSS
VL: DIQMTQSPSSLSASVGDRVTITCKASQDIRKYLNWYQQKPGKAPKLLIYYATSLADGVPSRFSGSGSGTDYTFTISSLQPEDIATYYCLQHGESPYTFGQGTKLEITR
As for B1, the “ADCC potency relative to CNTO 860 derived from C463, second experiment, 51Cr-release on HCT 116 cells” value was about 10 fold.

(Values after US20090214528A1 (published 2009).)
